Measured values: patent US20250215059A1 (REGENTS OF THE UNIVERSITY OF COLORADO A BODY CORPORATE, published 2025)

What was measured:
[1] = molecular target: T1, tau aggregates in HEK293 tau biosensor cells (4R repeat domain of tau (K18) with the P301S mutation fused to … (UniProt P10636-8 244-372)); experiment: cell-based or functional assay
[2] = molecular target: T1, tau aggregates in HEK293 tau biosensor …; experiment: Halo (JF646) imaging; intensity in aggregate over adjacent region, 5 aggregates
[3] = molecular target: T1, tau aggregates in HEK293 tau biosensor …; experiment: Halo (JF646) imaging in seeded HEK293 tau biosensor cells
[4] = molecular target: T1, tau aggregates in HEK293 tau biosensor …; experiment: Halo (JF646) imaging; intensity in aggregate over adjacent region, five aggregates
Excerpt: The locations of the serine repeats are shown in yellow. B) Quantification of the enrichment of the various Halo tagged constructs in cytoplasmic tau aggregates. Cells both expressing the halo tagged construct and containing a tau aggregate were identified by hand, and the average Halo intensity within the tau aggregates were normalized by an adjacent region outside of the tau aggregate to calculate enrichment. […] C) Representative images of cells expressing the various Halo tagged C-terminal SRRM2 fragments. Cells were labeled with 200 nM JF646 added directly to culture media for 24 hours prior to fixation and imaging.

T1 sequence (P10636 561-689 P618S): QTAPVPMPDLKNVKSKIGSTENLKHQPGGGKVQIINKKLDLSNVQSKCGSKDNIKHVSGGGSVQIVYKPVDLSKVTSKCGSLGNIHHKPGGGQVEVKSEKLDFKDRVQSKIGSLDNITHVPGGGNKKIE

B1: SRRM2 C-terminus-TNPO3-halo (other)
chain: MEGAKPTLQLVYQAVQALYHDPDPSGKERASFWLGELQRSVHAWEISDQLLQIRQDVESCYFAAQTMKMKIQTSFYELPTDSHASLRDSLLTHIQNLKDLSPVIVTQLALAIADLALQMPSWKGCVQTLVEKYSNDVTSLPFLLEILTVLPEEVHSRSLRIGANRRTEIIEDLAFYSSTVVSLLMTCVEKAGTDEKMLMKVFRCLGSWFNLGVLDSNFMANNKLLALLFEVLQQDKTSSNLHEAASDCVCSALYAIENVETNLPLAMQLFQGVLTLETAYHMAVAREDLDKVLNYCRIFTELCETFLEKIVCTPGQGLGDLRTLELLLICAGHPQYEVVEISFNFWYRLGEHLYKTNDEVIHGIFKAYIQRLLHALARHCQLEPDHEGVPEETDDFGEFRMRVSDLVKDLIFLIGSMECFAQLYSTLKEGNPPWEVTEAVLFIMAAIAKSVDPENNPTLVEVLEGVVRLPETVHTAVRYTSIELVGEMSEVVDRNPQFLDPVLGYLMKGLCEKPLASAAAKAIHNICSVCRDHMAQHFNGLLEIARSLDSFLLSPEAAVGLLKGTALVLARLPLDKITECLSELCSVQVMALKKLLSQEPSNGISSDPTVFLDRLAVIFRHTNPIVENGQTHPCQKVIQEIWPVLSETLNKHRADNRIVERCCRCLRFAVRCVGKGSAALLQPLVTQMVNVYHVHQHSCFLYLGSILVDEYGMEEGCRQGLLDMLQALCIPTFQLLEQQNGLQNHPDTVDDLFRLATRFIQRSPVTLLRSQVVIPILQWAIASTTLDHRDANCSVMRFLRDLIHTGVANDHEEDFELRKELIGQVMNQLGQQLVSQLLHTCCFCLPPYTLPDVAEVLWEIMQVDRPTFCRWLENSLKGLPKETTVGAVTVTHKQLTDFHKQVTSAEECKQVCWALRDFTRLFRGTELGSTSPVWWNSADIQSRCLIAQTTPVAGSQSLSSGAVATTTSSAGDHNGMLSVPAPGVPHSDVGEPPASTGAQQPSALAALQPAKERRSSSSSSSSSSSSSSSSSSSSSSSSSGSSSSDSEGSSLPVQPEVALKRVPSPTPAPKEAVREGRPPEPTPAKRKRRSSSSSSSSSSSSSSSSSSSSSSSSSSSSSSSSSSSSSSSSSSPSPAKPGPQALPKPASPKKPPPGERRSRSPRKPIDSLRDSRSLSYSPVERRRPSPQPSPRDQQSSSSERGSRRGQRGDSRSPSHKRRRETPSPRPMRHRSGGSGGSGGGSEIGTGFPFDPHYVEVLGERMHYVDVGPRDGTPVLFLHGNPTSSYVWRNIIPHVAPTHRCIAPDLIGMGKSDKPDLGYFFDDHVRFMDAFIEALGLEEVVLVIHDWGSALGFHWAKRNPERVKGIAFMEFIRPIPTWDEWPEFARETFQAFRTTDVGRKLIIDQNVFIEGTLPMGVVRPLTEVEMDHYREPFLNPVDREPLWRFPNELPIAGEPANIVALVEEYMDWLHQSPVPKLLFWGTPGVLIPPAEAARLAKSLPNCKAVDIGPGLNLLQEDNPDLIGSEIARWLSTLEISG
tau aggregation by flow cytometry (FRET+ cells and integrated FRET density, normalized to no insert Halo) [1]: ~50 % decrease

B2: Halo tagged 5 serine repeat (other)
chain: SSSSSMAEIGTGFPFDPHYVEVLGERMHYVDVGPRDGTPVLFLHGNPTSSYVWRNIIPHVAPTHRCIAPDLIGMGKSDKPDLGYFFDDHVRFMDAFIEALGLEEVVLVIHDWGSALGFHWAKRNPERVKGIAFMEFIRPIPTWDEWPEFARETFQAFRTTDVGRKLIIDQNVFIEGTLPMGVVRPLTEVEMDHYREPFLNPVDREPLWRFPNELPIAGEPANIVALVEEYMDWLHQSPVPKLLFWGTPGVLIPPAEAARLAKSLPNCKAVDIGPGLNLLQEDNPDLIGSEIARWLSTLEISG
modifications: JF646 Halo ligand covalently bound to the Halo tag
notes: also called 5-serines
mean enrichment in cytoplasmic tau aggregates [2]: 0.95 ratio

B3: Halo tagged 10 serine repeat (other)
chain: SSSSSSSSSSMAEIGTGFPFDPHYVEVLGERMHYVDVGPRDGTPVLFLHGNPTSSYVWRNIIPHVAPTHRCIAPDLIGMGKSDKPDLGYFFDDHVRFMDAFIEALGLEEVVLVIHDWGSALGFHWAKRNPERVKGIAFMEFIRPIPTWDEWPEFARETFQAFRTTDVGRKLIIDQNVFIEGTLPMGVVRPLTEVEMDHYREPFLNPVDREPLWRFPNELPIAGEPANIVALVEEYMDWLHQSPVPKLLFWGTPGVLIPPAEAARLAKSLPNCKAVDIGPGLNLLQEDNPDLIGSEIARWLSTLEISG
modifications: JF646 Halo ligand covalently bound to the Halo tag
notes: also called 10-serines
mean enrichment in cytoplasmic tau aggregates [2]: 1.05 ratio

B4: Frag_0-Halo (SRRM2 a.a. 2651-2752) (other)
chain: PAKPGPQALPKPASPKKPPPGERRSRSPRKPIDSLRDSRSLSYSPVERRRPSPQPSPRDQQSSSSERGSRRGQRGDSRSPSHKRRRETPSPRPMRHRSSRSPMAEIGTGFPFDPHYVEVLGERMHYVDVGPRDGTPVLFLHGNPTSSYVWRNIIPHVAPTHRCIAPDLIGMGKSDKPDLGYFFDDHVRFMDAFIEALGLEEVVLVIHDWGSALGFHWAKRNPERVKGIAFMEFIRPIPTWDEWPEFARETFQAFRTTDVGRKLIIDQNVFIEGTLPMGVVRPLTEVEMDHYREPFLNPVDREPLWRFPNELPIAGEPANIVALVEEYMDWLHQSPVPKLLFWGTPGVLIPPAEAARLAKSLPNCKAVDIGPGLNLLQEDNPDLIGSEIARWLSTLEISG
modifications: JF646 Halo ligand covalently bound to the Halo tag
notes: PCR amplified from the SRRM2_FL-Halo cell line and expressed from a pcDNA plasmid with an added start codon
binding result [3]: no binding
mean enrichment in cytoplasmic tau aggregates [4]: 1.1 ratio

B5: Halo alone (other)
chain: MAEIGTGFPFDPHYVEVLGERMHYVDVGPRDGTPVLFLHGNPTSSYVWRNIIPHVAPTHRCIAPDLIGMGKSDKPDLGYFFDDHVRFMDAFIEALGLEEVVLVIHDWGSALGFHWAKRNPERVKGIAFMEFIRPIPTWDEWPEFARETFQAFRTTDVGRKLIIDQNVFIEGTLPMGVVRPLTEVEMDHYREPFLNPVDREPLWRFPNELPIAGEPANIVALVEEYMDWLHQSPVPKLLFWGTPGVLIPPAEAARLAKSLPNCKAVDIGPGLNLLQEDNPDLIGSEIARWLSTLEISG
modifications: JF646 Halo ligand covalently bound
notes: Control without a targeting motif; also called Halo tag; Halo protein
binding result [3]: no binding
mean enrichment in cytoplasmic tau aggregates [4]: 1.08 ratio
